{
  "source": "patent CN107522783A",
  "molecular_target": "Recombinant human IL-17A (Sino Biological, 12047-HNAS) (human) (UniProt Q16552)",
  "sequence (Q16552 24-155)": "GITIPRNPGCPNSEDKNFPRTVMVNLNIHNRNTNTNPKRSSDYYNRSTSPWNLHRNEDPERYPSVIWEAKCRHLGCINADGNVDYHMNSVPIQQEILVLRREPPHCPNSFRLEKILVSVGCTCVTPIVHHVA",
  "test": "indirect ELISA, human IL-17A coated (Table 7, not in this copy)",
  "data": [
    {"binder": "杂交瘤14F10/9F6产生的鼠源抗体 (antibody, V domains shown) VH: QVQLQQSGPEVVRPGVSVKISCKGSGYTFTDYAMHWVKQSHAKSLEWIGVIGPYNDNTNYNQKFKGKATMTVDKSSSTAYMEIARLTSEDSAIYYCARGERYFDYWGQGTTLTVSS VL: DIQMTQSSSYLSVSLGGRVTITCRASDHINNWLAWYQQKPGNAPRLLIYGATSLETGVPSRFSGSGSGKDYTLSITSLQTEDVATYYCQQYWTIPLTFGAGTKLELK", "values": [
      {"measurement": "EC50 ratio to the humanized antibody", "value": 3, "unit": "fold"}
    ]}
  ]
}
